Results reported in US6127149.

Molecular target: cultured cells CH3/10T1/2 clone 8 (product of Dainippon Pharmaceutical Co., Ltd.)
Assay: adhesion of cells to coated dish (10 ug/cm^2), 1 hour, DNA of attached cells by spectrophotometer

absorbance (OD at 260 nm) of attached cells: 0.33 OD at 260 nm
B1: invariant modified epimorphin fragment: fragment (2) of mouse epimorphin (Examples 10 to 12) (protein)
chain: NGNRTSVDLRIRRTQHSVLSRKFVDVMTEYNEAQILFRERSKGRIQRQLEITGRTTTDDELEEMLESGKPSIFISDIISDSQIT
